Laboratory results from US20190022237.

Experiments:
[1] = target: T1, Permanent Lys26 CNP-38 PEG4x10 kDa conjugate 12g (not fully specified)
T1 chain: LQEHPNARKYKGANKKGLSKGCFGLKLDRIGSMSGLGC

[2] = target: T2, Permanent N-terminal CNP-34 PEG 5 kDa conjugate 14e (not fully specified)
T2 chain: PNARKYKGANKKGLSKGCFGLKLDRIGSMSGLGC

[3] = target: T3, Permanent N-terminal CNP-38 PEG 5 kDa conjugate 15e (not fully specified)
T3 chain: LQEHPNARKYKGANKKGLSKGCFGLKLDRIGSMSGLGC

Measured: half life norm. [h] (in vitro NEP digest)

B1: recombinant human Neutral Endopeptidase (NEP) (protein)
chain: YDDGICKSSDCIKSAARLIQNMDATTEPCTDFFKYACGGWLKRNVIPETSSRYGNFDILRDELEVVLKDVLQEPKTEDIVAVQKAKALYRSCINESAIDSRGGEPLLKLLPDIYGWPVATENWEQKYGASWTAEKAIAQLNSKYGKKVLINLFVGTDDKNSVNHVIHIDQPRLGLPSRDYYECTGIYKEACTAYVDFMISVARLIRQEERLPIDENQLALEMNKVMELEKEIANATAKPEDRNDPMLLYNKMTLAQIQNNFSLEINGKPFSWLNFTNEIMSTVNISITNEEDVVVYAPEYLTKLKPILTKYSARDLQNLMSWRFIMDLVSSLSRTYKESRNAFRKALYGTTSETATWRRCANYVNGNMENAVGRLYVEAAFAGESKHVVEDLIAQIREVFIQTLDDLTWMDAETKKRAEEKALAIKERIGYPDDIVSNDNKLNNEYLELNYKEDEYFENIIQNLKFSQSKQLKKLREKVDKDEWISGAAVVNAFYSSGRNQIVFPAGILQPPFFSAQQSNSLNYGGIGMVIGHEITHGFDDNGRNFNKDGDLVDWWTQQSASNFKEQSQCMVYQYGNFSWDLAGGQHLNGINTLGENIADNGGLGQAYRAYQNYIKKNGEEKLLPGLDLNHKQLFFLNFAQVWCGTYRPEYAVNSIKTDVHSPGNFRIIGTLQNSAEFSEAFHCRKNSYMNPEKKCRVW
Almost no proteolysis after 4 days.: all assays above
